B1: LINE1-full (parent)
chain: UACGUAGGUGGUUUUCCCCUGAUAGUGCUAAGGGGGCCUGGAAGUUUGGACUGGGCAGAGCUCAACACAGCGUGGCAAAGUGGCUGUGGCUAGACUGCCUCUCUGGAUUCCUCGUCACUCAGCAGGGCAUCUCUGAGAGAAAUGCC

Variants of B1 are the subject of the data set. Briefly: self-cleavage, relative activity (ratio to wild type); higher = more cleavage; in vitro, sequencing; the parent is a self-cleaving ribozyme.
Consider G27A A94G, for which the self-cleavage is 0.23.

As to U26A G126A, the self-cleavage came to 0.82.

Turning to U29A A57G, the self-cleavage turned out to be 1.01.

For G25A U85A, the self-cleavage came out at 0.08.

For the variant C28U U52C, the self-cleavage was found to be 1.58.

Turning to U26A A94G, the self-cleavage worked out at 0.24.

Regarding G25A A92U, the self-cleavage was found to be 0.25.

For U26A U45A, the self-cleavage is 0.84.

U26A U45C: the self-cleavage was found to be 1.37.

Consider G27U U73C, for which the self-cleavage worked out at 1.51.

As to U26A G122A, the self-cleavage was found to be 0.72.

Turning to U26C G144A, the self-cleavage turned out to be 1.02.

On to U26C C95U, for which the self-cleavage was 0.24.

On to G27A U62C, for which the self-cleavage stood at 0.08.

As for G25A G27A, the self-cleavage was 1.03.

As for G25U U119A, the self-cleavage came to 1.69.

In the case of G25U U119C, the self-cleavage was 1.74.

With G27A U96C, the self-cleavage was 0.1.

Take G25A A142U: the self-cleavage stood at 0.93.

Regarding G25A A142C, the self-cleavage is 2.3.

G25U A43C: the self-cleavage stood at 1.32.

For U26C U115A, the self-cleavage was found to be 1.33.

In the case of U26C U115C, the self-cleavage amounted to 1.84.

Take U26A G82U: the self-cleavage is 0.93.

For U26C G97A, the self-cleavage was 0.07.

On to C28A A124G, for which the self-cleavage was determined as 0.56.

For C28G A65U, the self-cleavage is 0.

As for G27A A42G, the self-cleavage came out at 0.99.

In the case of U26C A64U, the self-cleavage was found to be 0.61.

U26A G44A: the self-cleavage is 1.

With U29A A43G, the self-cleavage turned out to be 1.77.

For C28G U115C, the self-cleavage worked out at 0.75.

As to G27U G41U, the self-cleavage amounted to 1.26.

On to U26C U73G, for which the self-cleavage stood at 0.97.

With C28U U46C, the self-cleavage came to 1.21.

Turning to G25U A65G, the self-cleavage is 0.01.

As to U26C A92G, the self-cleavage amounted to 0.04.

As to C28U C123U, the self-cleavage worked out at 1.03.

Consider U26C G105U, for which the self-cleavage is 1.57.

Regarding U26G U143A, the self-cleavage is 0.68.

As for G27U U52C, the self-cleavage was 0.36.

For the variant C28U U81A, the self-cleavage came to 1.44.

C28U U81C: the self-cleavage came to 1.39.

With C28U A136G, the self-cleavage is 0.

In the case of U26C U100C, the self-cleavage is 1.29.

Take U26G A69G: the self-cleavage is 0.17.

Regarding U26C G72U, the self-cleavage was determined as 1.02.

Consider U26C G72A, for which the self-cleavage came to 0.93.

For U26C G86A, the self-cleavage came out at 0.05.

Consider C28U A77C, for which the self-cleavage was 1.07.

For C28U A77G, the self-cleavage amounted to 1.38.

As to U26C A67G, the self-cleavage came out at 1.16.

As to C28A G32A, the self-cleavage was 0.7.

On to U29A A121C, for which the self-cleavage worked out at 0.84.

Take U26A C84U: the self-cleavage worked out at 0.02.

With U26C U96C, the self-cleavage was 0.29.

U26A A77U: the self-cleavage stood at 0.78.

For the variant U26A A77C, the self-cleavage came out at 0.

Regarding C28G C98A, the self-cleavage stood at 0.12.

As for U26C C123U, the self-cleavage was 1.06.

C28A U47C: the self-cleavage was found to be 0.63.

Regarding U26C U134A, the self-cleavage amounted to 1.32.

In the case of G25A A136G, the self-cleavage worked out at 1.58.

Regarding U26C G74U, the self-cleavage came to 1.42.

U26C G74A: the self-cleavage stood at 1.17.

On to U26A G53A, for which the self-cleavage is 1.44.

For the variant G27U C61U, the self-cleavage stood at 0.06.

Take U26G A78G: the self-cleavage is 1.31.

For the variant U26C C131G, the self-cleavage was determined as 2.07.

Consider U26C C131A, for which the self-cleavage worked out at 0.78.

With U26A U91A, the self-cleavage turned out to be 0.44.

As for U26A C90U, the self-cleavage worked out at 0.04.

As to G27C A67C, the self-cleavage was 0.1.

U29A A138G: the self-cleavage was determined as 1.11.

Consider G25A U143A, for which the self-cleavage came to 1.12.

As to G27A U115C, the self-cleavage was determined as 1.54.

Take U26A C145A: the self-cleavage is 1.07.

Regarding U26C U87C, the self-cleavage is 0.26.

U26C C146U: the self-cleavage is 1.68.

Regarding U26A A67U, the self-cleavage was found to be 0.03.

In the case of U26A U87G, the self-cleavage came out at 0.13.

In the case of U26A U87C, the self-cleavage came out at 0.15.

Turning to U26A A69G, the self-cleavage is 0.29.

For the variant U26A A69U, the self-cleavage is 0.08.

For U26A A129U, the self-cleavage came out at 1.06.

As to C28G U100A, the self-cleavage amounted to 0.81.

Consider G25A G35A, for which the self-cleavage was determined as 0.91.

For C28U A117G, the self-cleavage is 1.58.

On to U26G A31U, for which the self-cleavage is 1.16.

Regarding U26G G122A, the self-cleavage worked out at 1.81.

For the variant U26C A77G, the self-cleavage came to 1.93.

Regarding U26C A77C, the self-cleavage turned out to be 1.61.

On to U26A U39A, for which the self-cleavage came to 0.99.

C28U A59G: the self-cleavage worked out at 0.09.

Regarding U29A A59G, the self-cleavage was determined as 0.16.

Turning to U29A A124G, the self-cleavage came out at 0.91.

With U26C C38U, the self-cleavage turned out to be 1.29.

On to G25U U39C, for which the self-cleavage was found to be 0.47.

For the variant U29A C145U, the self-cleavage was 0.61.

Regarding C28A G36A, the self-cleavage is 1.9.

For the variant G25A A78G, the self-cleavage amounted to 1.2.

For U26C A65U, the self-cleavage was determined as 0.14.

U26C A65G: the self-cleavage was determined as 0.13.

In the case of U29A A140G, the self-cleavage worked out at 1.3.

Consider U26A U102C, for which the self-cleavage stood at 1.13.

For the variant G25A U109A, the self-cleavage was determined as 1.72.

In the case of U26A A42U, the self-cleavage was determined as 1.03.

Take U26A A42G: the self-cleavage was determined as 1.02.

Take U26C A136G: the self-cleavage came out at 1.42.

For the variant U26C U29C, the self-cleavage worked out at 1.15.

Regarding U26A C28U, the self-cleavage amounted to 0.99.

For the variant G25A A43G, the self-cleavage is 1.27.

As to U26C C71U, the self-cleavage was 0.9.

With G25U U104A, the self-cleavage was 0.77.

Turning to U26A G137A, the self-cleavage stood at 1.53.

Regarding G27A A138C, the self-cleavage was 1.18.

Take U26C G44A: the self-cleavage stood at 1.17.

As to U26G U81C, the self-cleavage is 0.58.

Turning to U26C G125A, the self-cleavage is 1.61.

In the case of U26C G125U, the self-cleavage came out at 0.92.

For the variant U26C A43U, the self-cleavage is 1.21.

As to G27A G53A, the self-cleavage is 0.94.

In the case of G27A G53U, the self-cleavage stood at 1.14.

With U26A C63U, the self-cleavage came to 0.37.

Take U26A A107U: the self-cleavage worked out at 1.09.

As for U26A A107G, the self-cleavage worked out at 1.06.

U26A U108C: the self-cleavage was 1.13.

On to G25C U85C, for which the self-cleavage came out at 0.2.

As to U26C G70A, the self-cleavage was 0.14.

Take U26C G139A: the self-cleavage was found to be 1.34.

As to U29A A92G, the self-cleavage came out at 0.

For U26C U119A, the self-cleavage is 1.25.

Regarding U26C A124U, the self-cleavage was found to be 1.25.

As to G25U G49U, the self-cleavage is 1.21.

For G25A U130C, the self-cleavage was 0.8.

Regarding U26A U115A, the self-cleavage was found to be 1.07.

G25A A59G: the self-cleavage was determined as 0.09.

With G25A G54C, the self-cleavage is 1.02.

Turning to G27C U112C, the self-cleavage came out at 1.53.

As for G25A U47C, the self-cleavage was determined as 0.54.

For U26C A79G, the self-cleavage was found to be 1.01.

Consider U26C A79U, for which the self-cleavage turned out to be 0.68.

As for C28U C101U, the self-cleavage is 1.06.

As for U26A U109C, the self-cleavage was found to be 0.95.

With U26G A77G, the self-cleavage is 2.53.

On to G25A A64U, for which the self-cleavage was found to be 0.4.

Consider G25A A64G, for which the self-cleavage was found to be 0.27.

Turning to U26A A59U, the self-cleavage amounted to 0.65.

For the variant A24U U143A, the self-cleavage was determined as 1.13.

On to G25A G44A, for which the self-cleavage was 1.16.

For the variant U29A A67G, the self-cleavage worked out at 0.67.

On to U26A G127U, for which the self-cleavage was found to be 1.16.

Turning to G25A C99G, the self-cleavage worked out at 0.06.

On to U26C C101U, for which the self-cleavage came to 1.46.

Regarding U26G A107G, the self-cleavage was determined as 0.

In the case of U26A U132C, the self-cleavage was determined as 1.15.

Take G27U U47C: the self-cleavage was found to be 0.88.

On to C28U A138U, for which the self-cleavage worked out at 0.9.

Take U26A A30U: the self-cleavage is 1.56.

For the variant U26C U132A, the self-cleavage was 1.73.

With U26A G72A, the self-cleavage was found to be 0.94.

Regarding U26G G139A, the self-cleavage was 1.47.

Take U26C C118U: the self-cleavage was 1.05.

Turning to U26A A141U, the self-cleavage was found to be 0.61.

Regarding G25A A107G, the self-cleavage came out at 0.88.

In the case of G27A A140G, the self-cleavage stood at 1.38.

In the case of U26C C120U, the self-cleavage amounted to 1.17.

The values are drawn from the RNAGym collection of RNA variant scans (doi:10.7554/elife.90254).
